Measured values from patent publication US20230088052A1.
Where two headings read alike, the source gives them in different places.

Columns and labels:
[1] = target: his-tagged human IL-4R recombinant protein (h-IL-4R-his) (human) (UniProt P24394); test: binding ELISA, human IL-4R-his coated
[2] = target: his-tagged human IL-4R recombinant protein (h-IL-4R-his) (human) (UniProt P24394); test: binding ELISA, human IL-4R-his coated; remark: listed apart in the source
[3] = target: humanized Fc-tagged human IL-4R recombinant protein (h-IL-4R-Fc) (human) (UniProt P24394); test: blocking ELISA: human IL-4R-Fc coated, antibody blocks the binding of IL-4
[4] = target: humanized Fc-tagged human IL-4R recombinant protein (h-IL-4R-Fc) (human) (UniProt P24394); test: blocking ELISA of human IL-4/IL-4R
[5] = target: humanized Fc-tagged human IL-4R recombinant protein (h-IL-4R-Fc) (human) (UniProt P24394); test: blocking ELISA: human IL-4R-Fc coated, antibody blocks the binding of IL-4; remark: listed apart in the source
[6] = target: his-tagged human IL-4R recombinant protein (h-IL-4R-his) (human) (UniProt P24394); test: Biacore SPR: antibody captured, IL-4R antigen in flow, 1:1 model
[7] = target: his-tagged human IL-4R recombinant protein (h-IL-4R-his) (human) (UniProt P24394); test: binding ELISA, human IL-4R-his coated; remark: listed apart in the source

Chain of Dupilumab (antibody) (VH): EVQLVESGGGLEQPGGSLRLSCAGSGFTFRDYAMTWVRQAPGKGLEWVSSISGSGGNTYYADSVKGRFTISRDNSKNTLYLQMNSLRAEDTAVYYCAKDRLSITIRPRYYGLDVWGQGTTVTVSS
Chain of Dupilumab (antibody) (VL): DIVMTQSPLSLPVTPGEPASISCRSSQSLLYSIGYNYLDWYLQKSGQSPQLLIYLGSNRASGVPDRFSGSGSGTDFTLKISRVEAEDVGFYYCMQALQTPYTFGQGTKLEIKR

EC50 [1]: 0.0558 µg/mL
EC50 [2]: 0.0426 µg/mL
IC50 [3]: 0.0521 µg/mL
IC50 [4]: 0.156 µg/mL
IC50 [5]: 0.209 µg/mL
Kd [6]: 0.126 nM
EC50 [7]: 0.0276 µg/mL
Substance: Dupilumab (antibody)
